For assay [1], the target named is T1, SARS-CoV-2 spike receptor-binding domain (2019-nCoV RBD-SD1, residues 319–566) (SARS-CoV-2, UniProt P0DTC2 319-566, chemically biotinylated with NHS-PEG4-Biotin for selection, ELISA and BLI). Put plainly: BLI.
The target of assay [2] is T1, SARS-CoV-2 spike receptor-binding …. Put plainly: BLI. This is another data set of the same source. (In general: Biolayer interferometry detects binding as a change in optical thickness at a sensor tip.)

This is an account of results in paper PMC7642358 (2020).

B1: Sb23-Fc (Sb23 fused to the Fc domain from human IgG) (Fc fusion)
chain: QVQLVESGGGLVQAGGSLRLSCAASGFPVESENMHWYRQAPGKEREWVAAIYSTGGWTLYADSVKGRFTISRDNAKNTVYLQMNSLKPEDTAVYYCAVQVGYWYEGQGTQVTVS
The Kd is the constant that tells how readily two partners part at equilibrium. As usually defined, the koff is the first-order rate constant of dissociation. A lower koff goes with slow dissociation. In the case of B1, the Kd in assay [1] is 0.225 nM. Moreover, in assay [2], the koff is 7.1e-05 s⁻¹.
